The assay addresses T1, Human PTK7 Protein, His Tag (Acro Biosystems) (human, UniProt Q13308 31-704).
T1 construct: Bought His-tagged recombinant human PTK7; also called CCK4; Tyrosine-protein kinase-like 7
T1 sequence: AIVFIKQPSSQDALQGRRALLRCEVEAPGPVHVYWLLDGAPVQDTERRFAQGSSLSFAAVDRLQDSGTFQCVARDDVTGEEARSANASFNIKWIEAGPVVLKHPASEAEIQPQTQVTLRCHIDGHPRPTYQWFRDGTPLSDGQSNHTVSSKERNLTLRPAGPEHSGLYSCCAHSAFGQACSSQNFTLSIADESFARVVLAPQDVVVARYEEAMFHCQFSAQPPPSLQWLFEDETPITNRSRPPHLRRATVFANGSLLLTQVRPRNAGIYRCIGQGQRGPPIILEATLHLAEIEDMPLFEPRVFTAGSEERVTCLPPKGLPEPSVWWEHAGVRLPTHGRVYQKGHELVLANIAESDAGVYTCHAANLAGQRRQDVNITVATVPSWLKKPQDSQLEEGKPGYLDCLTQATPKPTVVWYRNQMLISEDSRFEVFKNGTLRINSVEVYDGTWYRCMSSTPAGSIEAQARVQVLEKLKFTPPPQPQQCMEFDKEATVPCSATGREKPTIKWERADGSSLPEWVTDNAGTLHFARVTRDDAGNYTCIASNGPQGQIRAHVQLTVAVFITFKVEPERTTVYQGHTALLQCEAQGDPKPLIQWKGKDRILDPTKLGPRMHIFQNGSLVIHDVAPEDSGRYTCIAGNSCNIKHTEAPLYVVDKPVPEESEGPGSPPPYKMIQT
As to the kind of experiment: BLI (Octet), antibody on anti-human Fc sensor, 50 nM PTK7; 1 = pH dependent binding.

B1: MYT10974 (antibody, V domains shown)
VH: EVQLVESGGGLVQPGGSLRLSCTASGFSLSSYAMGWVRQAPGKGLEWVGFINAGGNTYYANWHKGRFTISRDTSKNTVYLQMNSLRAEDTAVYFCARRYSRASGWYDLWGQGTLVTVSS
VL: EIVMTQSPSTLSASVGDRVIITCQASQSISSYLAWYQQKPGKAPKLLIYAASTLASGVPSRFSGSGSGAEFTLTISSLQPDDFATYYCQSYSYSSGIDYGDVFGQGTKLTVL
notes: MYT9359 HC variant; captured on anti-human Fc sensor
For the molecule B1, the binding result is “binds”.

B2: MYT10991 (antibody, V domains shown)
VH: EVQLVESGGGLVQPGGSLRLSCTASGFSLSSYAMGWVRQAPGKGLEWVGFINAGGNTYYANWAKGRFTISRDTSKNTVYLQMNSLRAEDTAVYFCARRYSRASGWYALWGQGTLVTVSS
VL: EIVMTQSPSTLSASVGDRVIITCQASQSISSYLAWYQQKPGKAPKLLIYAASTLASGVPSRFSGSGSGAEFTLTISSLQPDDFATYYCQSYSYSSGIDYGDVFGQGTKLTVL
notes: MYT9359 HC alanine variant; captured on anti-human Fc sensor
B2: the binding result is listed as “binds”.

B3: MYT10999 (antibody, V domains shown)
VH: EVQLVESGGGLVQPGGSLRLSCTASGFSLSSYAMGWVRQAPGKGLEWVGFINAGGNTYYANWAKGRFTISRDTSKNTVYLQMNSLRAEDTAVYFCARRYSRASGWYDLWGQGTLVTVSS
VL: EIVMTQSPSTLSASVGDRVIITCQASQSISHYLAWYQQKPGKAPKLLIYAASTLASGVPSRFSGSGSGAEFTLTISSLQPDDFATYYCQSYSYSSGIDYGDVFGQGTKLTVL
notes: MYT9359 LC variant; captured on anti-human Fc sensor
On to B3, for which the binding result is on record as “binds”.

B4: MYT10978 (antibody, V domains shown)
VH: EVQLVESGGGLVQPGGSLRLSCTASGFSLSSYAMGWVRQAPGKGLEWVGFINAGGNTYYANWAKGRFTISRDTSKNTVYLQMNSLRAEDTAVYFCAHRYSRASGWYDLWGQGTLVTVSS
VL: EIVMTQSPSTLSASVGDRVIITCQASQSISSYLAWYQQKPGKAPKLLIYAASTLASGVPSRFSGSGSGAEFTLTISSLQPDDFATYYCQSYSYSSGIDYGDVFGQGTKLTVL
notes: as for B1
As for B4, the binding result was “binds”.

B5: MYT10998 (antibody, V domains shown)
VH: EVQLVESGGGLVQPGGSLRLSCTASGFSLSSYAMGWVRQAPGKGLEWVGFINAGGNTYYANWAKGRFTISRDTSKNTVYLQMNSLRAEDTAVYFCARRYSRASGWYDLWGQGTLVTVSS
VL: EIVMTQSPSTLSASVGDRVIITCQASQSIHSYLAWYQQKPGKAPKLLIYAASTLASGVPSRFSGSGSGAEFTLTISSLQPDDFATYYCQSYSYSSGIDYGDVFGQGTKLTVL
notes: as for B3
As for B5, the binding result is on record as “binds”.

B6: MYT10980 (antibody, V domains shown)
VH: EVQLVESGGGLVQPGGSLRLSCTASGFSLSSYAMGWVRQAPGKGLEWVGFINAGGNTYYANWAKGRFTISRDTSKNTVYLQMNSLRAEDTAVYFCARRHSRASGWYDLWGQGTLVTVSS
VL: EIVMTQSPSTLSASVGDRVIITCQASQSISSYLAWYQQKPGKAPKLLIYAASTLASGVPSRFSGSGSGAEFTLTISSLQPDDFATYYCQSYSYSSGIDYGDVFGQGTKLTVL
notes: as for B1
Regarding B6, the binding result is on record as “binds”.

B7: MYT10997 (antibody, V domains shown)
VH: EVQLVESGGGLVQPGGSLRLSCTASGFSLSSYAMGWVRQAPGKGLEWVGFINAGGNTYYANWAKGRFTISRDTSKNTVYLQMNSLRAEDTAVYFCARRYSRASGWYDLWGQGTLVTVSS
VL: EIVMTQSPSTLSASVGDRVIITCQASQSHSSYLAWYQQKPGKAPKLLIYAASTLASGVPSRFSGSGSGAEFTLTISSLQPDDFATYYCQSYSYSSGIDYGDVFGQGTKLTVL
notes: as for B3
As for B7, the binding result was “binds”.

B8: MYT10993 (antibody, V domains shown)
VH: EVQLVESGGGLVQPGGSLRLSCTASGFSLSSYAMGWVRQAPGKGLEWVGFINAGGNTYYANWAKGRFTISRDTSKNTVYLQMNSLRAEDTAVYFCARRYSRASGWYDLWGQGTLVTVSS
VL: EIVMTQSPSTLSASVGDRVIITCQHSQSISSYLAWYQQKPGKAPKLLIYAASTLASGVPSRFSGSGSGAEFTLTISSLQPDDFATYYCQSYSYSSGIDYGDVFGQGTKLTVL
notes: as for B3
Take B8: the binding result is on record as “binds”.
